We go through one variant from IntAct's records for PubMed 26297806.

B1: Progesterone-induced-blocking factor 1 (Homo sapiens), Q8WXW3 (parent)
chain: MSRKISKESKKVNISSSLESEDISLETTVPTDDISSSEEREGKVRITRQLIERKELLHNIQLLKIELSQKTMMIDNLKVDYLTKIEELEEKLNDALHQKQLLTLRLDNQLAFQQKDASKYQELMKQEMETILLRQKQLEETNLQLREKAGDVRRNLRDFELTEEQYIKLKAFPEDQLSIPEYVSVRFYELVNPLRKEICELQVKKNILAEELSTNKNQLKQLTETYEEDRKNYSEVQIRCQRLALELADTKQLIQQGDYRQENYDKVKSERDALEQEVIELRRKHEILEASHMIQTKERSELSKEVVTLEQTVTLLQKDKEYLNRQNMELSVRCAHEEDRLERLQAQLEESKKAREEMYEKYVASRDHYKTEYENKLHDELEQIRLKTNQEIDQLRNASREMYERENRNLREARDNAVAEKERAVMAEKDALEKHDQLLDRYRELQLSTESKVTEFLHQSKLKSFESERVQLLQEETARNLTQCQLECEKYQKKLEVLTKEFYSLQASSEKRITELQAQNSEHQARLDIYEKLEKELDEIIMQTAEIENEDEAERVLFSYGYGANVPTTAKRRLKQSVHLARRVLQLEKQNSLILKDLEHRKDQVTQLSQELDRANSLLNQTQQPYRYLIESVRQRDSKIDSLTESIAQLEKDVSNLNKEKSALLQTKNQMALDLEQLLNHREELAAMKQILVKMHSKHSENSLLLTKTEPKHVTENQKSKTLNVPKEHEDNIFTPKPTLFTKKEAPEWSKKQKMKT
partner: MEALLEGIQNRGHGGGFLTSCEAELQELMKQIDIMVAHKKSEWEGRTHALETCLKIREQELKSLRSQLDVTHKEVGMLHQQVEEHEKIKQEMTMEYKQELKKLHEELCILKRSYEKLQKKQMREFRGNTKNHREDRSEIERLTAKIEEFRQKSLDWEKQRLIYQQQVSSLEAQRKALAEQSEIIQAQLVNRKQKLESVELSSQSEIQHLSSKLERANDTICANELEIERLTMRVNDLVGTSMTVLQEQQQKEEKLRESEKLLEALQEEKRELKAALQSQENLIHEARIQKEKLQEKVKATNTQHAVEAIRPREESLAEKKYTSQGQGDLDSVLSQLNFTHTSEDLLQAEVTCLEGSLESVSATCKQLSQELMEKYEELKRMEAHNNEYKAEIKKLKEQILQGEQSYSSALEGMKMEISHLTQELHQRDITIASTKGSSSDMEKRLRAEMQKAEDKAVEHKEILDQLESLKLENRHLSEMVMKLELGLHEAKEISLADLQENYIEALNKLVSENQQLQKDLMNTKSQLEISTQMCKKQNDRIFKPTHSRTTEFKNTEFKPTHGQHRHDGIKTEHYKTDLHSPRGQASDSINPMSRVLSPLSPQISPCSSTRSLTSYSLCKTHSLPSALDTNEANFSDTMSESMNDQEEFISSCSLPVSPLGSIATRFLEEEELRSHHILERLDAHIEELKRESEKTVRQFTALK

Variants of B1 are the subject of the assay. The following applies: with cep63_human CEP63, Q96MT8.
In the case of E89Q, the “effect of a mutation on the interaction” value was “disrupting interaction strength”.
